Positions count from the first letter of the chain named.
Assays:
[1] = target: Ravn pin peptide … (Marburg virus, strain Ravn); experiment: pin peptide ELISA, pin D5; overflow value is greater than 3.9
[2] = target: Ravn pin peptide […] (Marburg virus, strain Ravn); experiment: pin peptide ELISA, pin D6; overflow value is greater than 3.9
[3] = target: Ravn pin peptide … (Marburg virus, strain Ravn); experiment: pin peptide ELISA, pin D4
[4] = target: Ravn pin peptide … (Marburg virus, strain Ravn); experiment: pin peptide ELISA, pin printed as D6
[5] = target: Ravn pin peptide … (Marburg virus, strain Ravn); experiment: pin peptide ELISA, pin printed as D5
[6] = target: Ravn pin peptide … (Marburg virus, strain Ravn); experiment: pin peptide ELISA, pin D4; overflow value is greater than 3.9
[7] = target: Ravn pin peptide … (Marburg virus, strain Ravn); experiment: pin peptide ELISA, pin D5
[8] = target: Ravn pin peptide … (Marburg virus, strain Ravn); experiment: pin peptide ELISA, pin D6

B1: CAN30G5 (antibody, V domains shown)
VH: EVQLVESGGGLVQPKGSLKLSCAASGFAFNSYAMHWVCQAPGKGLEWVARIRIKSGNYATSYAGSVTDRFTVSRDDSQNLFYLQMNNLKTEDTAMYYCVREWEGAMDYWGQGTSVTVSS
VL: DIVLTQSPLSLPVSLGDQASISCRSSQSLVHSNGNTYLHWYLQKPGQSPNLLIYKVSNRFSGVPDRFSGSGSGTDFTLKISRVEAEDLGVYFCSQSTHVPWTFGGGTKLEIK
Q: What does the source list for B1?
A: Absorbance (1 hour) [1]: > 3.9; Absorbance (1 hour) [2]: > 3.9; Absorbance (1 hour) [3]: 0.631

B2: CAN54G2 (antibody, V domains shown)
VH: QVQLQQSGTELVRPGTSVKISCKASGYDFTNFWLGWIKQRPGHGLEWIGDIYPGGDNTYYNEKFKGKVTLTADKSSNTAYMQFSSLTSEDSAVYFCFMILYTLDYWGQGTSVTVSS
VL: not shown
Q: Which results are given for B2?
A: Absorbance (1 hour) [4]: 1.85; Absorbance (1 hour) [5]: 2.76

B3: CAN30G4 (antibody, V domains shown)
VH: EVKLVESGGGLVKSGGSLKLSCAVSGFTFSTYAMSWVRQIPEKRLEWVATISNGGSYIYYSDSVKGRFTISRDNAKNTLYLQMSSLRSEDTAMYYCARHRESYRYDWFAYWGQGTLVTVSA
VL: DVLMTQTPLSLPVSLGDQASISCRSSQNIVHSDGNTYLEWYLQKPGQSPKLLIYKFSNRFSGVPDRFSGSGSGTDFTLKISRVEAEDLGVYYCFQGSHVPPTFGAGTKLELK
Q: Which Absorbance (1 hour) [6] does the source give for B3 here?
A: > 3.9

Q: And the Absorbance (1 hour) [7]?
A: 1.97

B4: CAN30G3 (antibody, V domains shown)
VH: QVQLKESGPGLVAPSQSLSITCTVSGFSLTDYGITWIRQPPGKGLEWLGVIWGGGSAYYNLVLKSRLSISKDNSKSQVFLKMNSLQTDDTAMYYCAKHRTLITTAMDYWGQGISVTVSS
VL: B3 VL with D33N, P45S, F56V, V99F, P101W, A105G, L111I
Q: For B4, which Absorbance (1 hour) [8] is on record?
A: 1.12

Q: And the Absorbance (1 hour) [7]?
A: 1.84

From patent US20170226192A1
